Series [1] has as its target T1, GCN4 (Ganoderma lucidum, UniProt A0A6H0YJ80 1-300). The experiment in a line: SPR. The following applies: SPR: 10 mM HEPES pH 7.4, 150 mM NaCl, 3 mM EDTA, 0.005% P20, 25 C, SA chip, GCN4 7.81-125 nM; EMSA: Thermo 89880 kit, conditions not stated; in M (unit assumed). (A gel shift assay detects complexes by their altered migration in electrophoresis.)
Series [2] deals with T1, GCN4. The series can be described thus: EMSA; SPR: 10 mM HEPES pH 7.4, 150 mM NaCl, 3 mM EDTA, 0.005% P20, 25 C, SA chip, GCN4 7.81-125 nM; EMSA: Thermo 89880 kit, conditions not stated. The following applies: protein: recombinant; tags: His; chain copies: 2; blunt.

T1 sequence (A0A6H0YJ80 entry or part of it): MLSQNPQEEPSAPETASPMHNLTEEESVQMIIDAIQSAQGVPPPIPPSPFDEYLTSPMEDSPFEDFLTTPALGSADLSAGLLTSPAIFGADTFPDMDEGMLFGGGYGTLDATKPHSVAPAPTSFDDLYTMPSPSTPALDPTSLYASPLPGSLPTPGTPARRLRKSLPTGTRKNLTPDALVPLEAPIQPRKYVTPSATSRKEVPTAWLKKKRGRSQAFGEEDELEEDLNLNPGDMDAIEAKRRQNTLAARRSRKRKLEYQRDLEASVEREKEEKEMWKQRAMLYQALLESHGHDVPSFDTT

Take SWI6 (GBE) SPR probe: the Kd (M (unit not given)) in series [1] is 8.79e-08.

B1: m-SWI6 mutant probe (pSwi6-M-Biotin) (dsDNA)
DNA 1: GAAAGTACCAGGGATAAATTTATTATATAGTCTCGGTGCCATG
DNA 2: CATGGCACCGAGACTATATAATAAATTTATCCCTGGTACTTTC
As for B1, the binding result in series [2] is reported as “no binding”.

B2: SWI6 promoter GBE probe (pSwi6-Biotin) (dsDNA)
DNA 1: GAAAGTACCAGGGCACCTGGTGAGTCTCAGTCTCGGTGCCATG
DNA 2: CATGGCACCGAGACTGAGACTCACCAGGTGCCCTGGTACTTTC
With B2, the binding result in series [2] is given as “binds”.

The values are drawn from PMC12016525, “The GCN4-Swi6B module mediates low nitrogen-induced cell wall remodeling in Ganoderma lucidum”.
